We go through 9 molecules from publication PMC7598594 (Toxins, 2020).

Holding throughout (experiment): ELISA
What all share (conditions): both partners purified
Background: In an ELISA, binding on a coated surface is turned into a signal by an enzyme label.

The target in test [1] is T1, light chain of BoNT/E1 (LC/E) (Clostridium botulinum, BoNT/E subtype …, UniProt Q00496).
T1 construct: source: E. coli BL21(DE3), purified (Ni-NTA, Streptactin, SEC)

Test [2] concerns the target T2, carboxyl terminal domain of the BoNT/E heavy chain (HCE) (Clostridium botulinum, BoNT/E (subtype …)).
Test [3] concerns the target T1, light chain of BoNT/E1 (LC/E). The source holds these as a separate data set.
In test [4] the target is T2, carboxyl terminal domain of the BoNT/E …. This is another data set of the same source.

T1 sequence (Q00496 2-403): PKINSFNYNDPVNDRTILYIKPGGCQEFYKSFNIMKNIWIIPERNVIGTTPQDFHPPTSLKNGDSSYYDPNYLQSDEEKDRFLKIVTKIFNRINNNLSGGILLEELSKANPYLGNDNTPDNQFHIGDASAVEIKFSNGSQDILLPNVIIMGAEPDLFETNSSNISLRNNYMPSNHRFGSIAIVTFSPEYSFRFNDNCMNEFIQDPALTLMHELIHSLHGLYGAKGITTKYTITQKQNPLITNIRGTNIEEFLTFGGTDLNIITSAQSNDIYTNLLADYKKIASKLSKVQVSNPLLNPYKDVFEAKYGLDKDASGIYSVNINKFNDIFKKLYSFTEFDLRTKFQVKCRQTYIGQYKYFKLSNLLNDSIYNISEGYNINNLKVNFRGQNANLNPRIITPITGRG

B1: JSI-G9 (VHH)
VHH: SGGGMVQAGGSLRLSCAASGRTASLDGMGWFRQAPGKEREFVGSINWRIGTTYYIDSVQGRFTISRDNARNTVYLQMISLKPEDTAVYYCAARLRRTDLISSPASYEYWGHGTQVTVSS
notes: source: E. coli, purified
Take B1: the binding result in test [1] is recorded as “no binding (tested: 125 nM)”.

B2: JSI-H9 (VHH)
VHH: SGGGSVQAGGSLGLTCQGSGDAVRRGWFRQAPGKEREFVAAITSYGGTTFYADSVKGRFTVSRDNAKNTVYLQMISLKPEDTAVYYCAAASRPTGWPYEYDVWGQGTQVTVSS
notes: source: E. coli, purified
B2: the binding result in test [1] was “no binding (tested: 125 nM)”.

B3: JSI-C7 (VHH)
VHH: SGGGLMQAGGSLRLACAASGRPFSTYFMGWFRQAPGKERDFVAVIDWSDGSTDYADSVKGRFTISRDNAKNTVYLQMNSLKPEDTAVYYCAARGSYLYTWPLEPDEYDYWGQGTQVTVSS
notes: source: E. coli, purified
Take B3: in test [1], the binding result is given as “no binding (tested: 125 nM)”.

B4: JSI-F6 (VHH)
VHH: SGGGLVQAGGSLRVSCAASGRTFSTYAMGWFRQAPGKEREFVAAITKSGDYAYYADAVKGRFTISRDNAKNTVSLQMNSLKDEDTAVYYCAAHRSPLYSASVYDRDYDYWGQGTQVTVSS
notes: source: E. coli, purified
Consider B4, for which the binding result in test [1] is “no binding (tested: 125 nM)”. In test [2], this molecule returned an EC50 of 3 nM.

B5: JLG-G12 (VHH)
VHH: QLQLVETGGGLVQAGGSLRLSCAASGRTFSSYAVGWFRQAPGKEREFVAAISWSGSYAYYADSVKGRFTISRDNAKNTVYLQMNSLKPEDTAVYYCNGDLEGYSNHETGDYWGQGTQVTVSS
notes: source: E. coli, purified
In test [3], B5 showed an EC50 of 2 nM.

B6: JSI-A4 (VHH)
VHH: SGGGLVQAGGSLRLSCAASGLTFSDTAVGWFRQAPGKEREFVAAAVIWSGVNTRYADSVRGRFTISRDSAKNTVYLQMNTLKPEDTAIYYCAAGRGAAAFPTDRSQYVYWGQGTQVTVSS
notes: source: E. coli, purified
Take B6: the binding result in test [1] is on record as “no binding (tested: 125 nM)”.

B7: JSI-F2 (VHH)
VHH: SGGGLVQAGGSLRLSCAASGGTVSKYPMGWFRQAPGQEREFVAALSRDTDYTYYADSVKGRFTISRDNAKNTVYLQMNSLKREDTALYYCAAGSTDLKYSASVYADDYDYWGQGTQVTVSS
notes: source: E. coli, purified
Regarding B7, in test [1], the binding result is recorded as “no binding (tested: 125 nM)”. In test [2], the concentration for a half-maximal effect (EC50) is 2 nM.

B8: JLF-H5 (VHH)
VHH: QVQLVESGGGSVQPGGSLRLSCVASGFTFTNYAMAWVRQVSGKGLEGVAAISSEGFIYIPDSVKGRFTISRDNAKNTVYLQMDNLQSEDTAIYHCAAVDWKRVAAMNSYNMDYWGKGTPVTVSA
notes: source: E. coli, purified
The molecule B8 gave an EC50 in test [3] of 10 nM. In other words, the double-digit nanomolar range.

B9: JLE-G6 (VHH)
VHH: QLQLVETGGGLVKPGGSLRLSCVVSGFTFDDYRMAWVRQAPGKELEWVSSIDSWSINTYYEDSVKGRFTISTDNAKNTLYLQMSSLKPEDTAVYYCAAEDRLGVPTINAHPSKYDYNYWGQGTQVTVSS
notes: source: E. coli, purified
For B9, the response in test [4] was half-maximal at 3 nM (EC50).

What is called EC50 is the concentration giving half of the maximal effect. Read a low EC50 as higher potency in that assay.
